From publication PMC8204860
Values belong to the substance of their own block, whether it stands above or below them.

Target: TRAPPIII complex, P46944;P38334;Q03337;P36149;Q03784;Q03630;Q99394
Test: in vivo anchor-away assay (colocalization of Trs85-mNeonGreen with mitochondrially anchored Rab, fluorescence microscopy)
Details: parent: est. 0.55; read off a plot

other: Mander's Overlap Coefficient: 0.68
Substance: chimeric construct containing the NBD of Rab11/Ypt31 and the HVD of Rab1/Ypt1, mitochondrially anchored D187A; K188A; N190A

other: Mander's Overlap Coefficient: 0.58
Substance: chimeric construct containing the NBD of Rab11/Ypt31 and the HVD of Rab1/Ypt1, mitochondrially anchored K184A; K185A; E186A

other: Mander's Overlap Coefficient: 0.3
Substance: chimeric construct containing the NBD of Rab11/Ypt31 and the HVD of Rab1/Ypt1, mitochondrially anchored V191A; N192A; L193A

Further lines, the substance ahead of its results:

Substance: chimeric construct containing the NBD of Rab11/Ypt31 and the HVD of Rab1/Ypt1, mitochondrially anchored K194A; Q196A; S197A
other: Mander's Overlap Coefficient: 0.28

Substance: chimeric construct containing the NBD of Rab11/Ypt31 and the HVD of Rab1/Ypt1, mitochondrially anchored L198A; T199A; N200A; T201A
other: Mander's Overlap Coefficient: 0.21

Substance: chimeric construct containing the NBD of Rab11/Ypt31 and the HVD of Rab1/Ypt1, mitochondrially anchored T181A; T182A; Q183A
other: Mander's Overlap Coefficient: 0.54
